The source of these data is the nanobody polyreactivity screen of Harvey et al. (2022).

The data set can be described thus: yeast display, Sf9 membrane polyspecificity reagent, FACS + sequencing; frameworks hold sequencing errors. An outline of the steps:
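After 36–48 hours of galactose induction, yeast (Saccharomyces cerevisiae BJ5465) displaying a synthetic nanobody library were stained at 4 °C for 1 hour with 10% biotinylated, detergent-solubilized Sf9 membrane reagent. Streptavidin microbeads enriched the stained cells before FACS sorting into low and high (top ~1%) gates on anti-HA and streptavidin fluorescence. Each clone's polyreactivity label reflects its gate of origin.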
On to “QVQLVESGGGLVQAGGSLRLSCAASGFTFPGNAMGWYRQAPGKEREFVAAITRSSGSTSYADSVKGRFTISRDNAKNTVYLQMNSLKPDDTAVYRDYWGLGTQVTVSS”, for which the “polyreactivity (PSR sort gate)” value is “low polyreactivity”.
On to “QVQLVESGGGLVQAGGSLRLSCAASGFTFPLNAMGWYRQAPGKERELVAAITNGGTTYYADSVKGRFTISRDNAKNTVYLQMNSLKPEDTAVYYCNAQATPYEGRYDESEYDYWGQGTQVTVSS”, for which the “polyreactivity (PSR sort gate)” value was “low polyreactivity”.
The same measure for “QVQLVESGGGLVQAGGSLRLSCAASGFTFPLNAMGWYRQAPWKERELVAAITNGGTTYYADSVKGRFTISRDNAKNTVYLQMNSLKPEDTGVYYCAAYTYRYGSFKYGYWGQGTQVTVSS”: “low polyreactivity”.
With “QVQLVESGGGLVQAGGSLRLSCAASGFTFPNNAMGWYRQAPGKERELVAAITWSGGSTYADSVKGRFTISRDNAKNTVYLQMNSLKPEDTAVYYCNTRGTYLSKTLPSAYDYWGQGTQVTVSS”, the “polyreactivity (PSR sort gate)” value was “low polyreactivity”.
To “QVQLVESGGGLVQAGGSLRLSCAASGFTFPNYAMGWYRQAPGKERELVAAITSGGGRTNYADSVKGRFTISRDNAKNTVYLQMNSLKPEDTAVYYCNAEKTYLGSRYRPYNYWGQGTQVTVSS” belongs “low polyreactivity”.
The same measure for “QVQLVESGGGLVQAGGSLRLSCAASGFTFPNYAMGWYRQAPGKERELVAAITSGGGRTNYADSVKGRFTISRDNAKNTVYLQMNSLKPVDTAVYYCAKTRVRGSEFGYWGQGTQVTVSS”: “low polyreactivity”; for “QVQLVESGGGLVQAGGSLRLSCAASGFTFPRNVMGWYRQAPGKERELVATISSGGRTNYADSVKGRFTISRDNAKNTVYLQMNSLKPEDTAVYYCAARVYTYYYDLHKRYYWGQGTQVTVSS”: “high polyreactivity”.
The same measure for “QVQLVESGGGLVQAGGSLRLSCAASGFTFPRYAMGWYRQAPGKERELVAAISYRGGSTYYADSVKGRFTISRDTAKNTVYLQMNSLKPEDTAVSYCNAVGGPVRGYPYDYWGQGTQVTVSS”: “high polyreactivity”; for “QVQLVESGGGLVQAGGSLRLSCAASGFTFPRYAMGWYRQAPGKERELVAAITTSVGNTYYADSVKGRFTISRDNAKNTVYLQMNSLKPEDTAVYYCSTIYDHFDYWGQGTQVTVSS”: “low polyreactivity”; for “QVQLVESGGGLVQAGGSLRLSCAASGFTFPRYAMGWYRQAPGKVRQLVAAISYRGGRTYYADSVKWRFTISRDNAKNTVFLQMNSLKPEDTAVYYCAADKTPSARYDYWGQGTQVTVSS”: “high polyreactivity”.
For the sequence “QVQLVESGGGLVQAGGSLRLSCAASGFTFPSYAMAWYRQDPGKEREFVAGITKGGGNTYYADAVKGRFTISRDNAKNTVYLQKNSLKQEDTAVYYCSADRSSFYWSHGTVYGYDYWGQGTQVTVSS”, the “polyreactivity (PSR sort gate)” value was “low polyreactivity”.
Consider “QVQLVESGGGLVQAGGSLRLSCAASGFTFPSYAMGWYRQAPGKERELVAAISQRGGSTYYADSVKGRFTISRDNAKNTVYLQMNSLKPEDTAVYYCAALAPRTGRPTYGYWGQGTQVTVSS”, for which the “polyreactivity (PSR sort gate)” value is listed as “low polyreactivity”.
“QVQLVESGGGLVQAGGSLRLSCAASGFTFPSYAMGWYRQAPGKERELVAAISSRGGSTYYADSVKGRFTISRDNAKNTVYLQMNSLKPEDTAVYYCNRLQVYSYYPYYPWYNYWGQGTQVTVSS”: the “polyreactivity (PSR sort gate)” value is “high polyreactivity”.
To “QVQLVESGGGLVQAGGSLRLSCAASGFTFPTYAMGWYRQAPGKERELVAAISTSGARTYYADSVKGRFTISRDNAKNTVYLQMNSLKPEDTAVYYCAAVFKAGSAYDYWGQGTQVTVSS” belongs “high polyreactivity”; to “QVQLVESGGGLVQAGGSLRLSCAASGFTFPVYAMGWYRQAPGKEREFVAAITYIGGSTYADSVKGRFTISRDNAKNTVYLQMNSLKPEDTAVYYCNADDARLFDYWGQGTQVTVSS”, “low polyreactivity”; to “QVQLVESGGGLVQAGGSLRLSCAASGFTFPWNVMGWYRQAPGKERELVAAITYDGGGTYADSVKGRFTISRDNAKNTVYLQMNSLKPEDTEVYFCNADLIYGEVYDYWGQGTQVTVSS”, “low polyreactivity”.
Take “QVQLVESGGGLVQAGGSLRLSCAASGFTFPWYAMGWYRQAPGKERELVASISYRGDSTYYSDSVKGRFTISRDNAKNTVYLQMNSLKPEDTAVYYCADDYLWYNYAGQVDHDYDYWGQGTQVTVSS”: the “polyreactivity (PSR sort gate)” value was “low polyreactivity”.
“QVQLVESGGGLVQAGGSLRLSCAASGFTFPYNAMGWYRQAPGKERELVAAISSTGGITYYADSVKGRFTISRDNEKNTVYLQMNSLKPEDTAVYYCNAGYPDYDWTWWHISYDYWGQGTQVTVSS”: the “polyreactivity (PSR sort gate)” value was “low polyreactivity”.
Turning to “QVQLVESGGGLVQAGGSLRLSCAASGFTFPYNAMGWYSQARGKERELVAAISRSGTRTYYADSVKGRFTISRDNAKNTVYLQMNSLKPEDTAVYYCNARAAGYSRRGPGFDYWGQGTQVTVSS”, the “polyreactivity (PSR sort gate)” value was “high polyreactivity”.
“QVQLVESGGGLVQAGGSLRLSCAASGFTFPYYAMGWYRQAPGKERELVAAITGRGGSTYYADSVKGRFTISRDNAKNTVYLQMNSLKPVDTAVFYCNAVRFAIHLADPYDYWGQGTQVTVSS”: the “polyreactivity (PSR sort gate)” value is recorded as “high polyreactivity”.
Turning to “QVQLVESGGGLVQAGGSLRLSCAASGFTFPYYAMGWYSQAPGKERELVAAINRSGGITYYADSVRGRFTISRDNAKNTVYLQMKSLKPEDTAVYYCAAPSFGYRTWSVFGSGHDYWGQGTQVTVSS”, the “polyreactivity (PSR sort gate)” value is reported as “high polyreactivity”.
The same measure for “QVQLVESGGGLVQAGGSLRLSCAASGFTFPYYSMGWYRQAPGTERELVAPISYNGGSTYYADSVMGRFTISRDNAKNTVYLQMNSRNPEDTAVYYCNAVYSDSGVVGYYYWGQGTQVTVSS”: “high polyreactivity”.
The same measure for “QVQLVESGGGLVQAGGSLRLSCAASGFTFQENAMGWYRQAPGKERELVAAISKSGGITYYADSVKGRFTISRDNAKNTVYLHMNSLKPEDTAVYYCNKGNAYVVYTSGYDYWGQGTQVTVSS”: “low polyreactivity”; for “QVQLVESGGGLVQAGGSLRLSCAASGFTFQENAMGWYRQAPGKERELVAAISYGGGSTYYADSVKGRFTISRDNAKNTVYLQMNSLKPEDTAVYYCAADGGSAYAWYFAELYGYWGQGTQVTVSS”: “low polyreactivity”; for “QVQLVESGGGLVQAGGSLRLSCAASGFTFQLYAMGWYRQAPGKERELVAAISSSGTSTYYADSVKGRFTISRDNAKNTVFLQMNSLKPEDTAVYYCAARGPYTYRRYGYWGQGTQVTVSS”: “high polyreactivity”.
Take “QVQLVESGGGLVQAGGSLRLSCAASGFTFQNYAMGWYRQAPGKERELVAAISWGGGSTYYADSVKGRFTISRDNAQNTVYLQMNSLKPEDTAVYYCNAYEYLSAGYDYWGQGTQVTVSS”: the “polyreactivity (PSR sort gate)” value is listed as “low polyreactivity”.
To “QVQLVESGGGLVQAGGSLRLSCAASGFTFQRYAKGWYRQAPGKERDLVAAITRNGGSTYYADSVKGRFTISRDNAKNTVYLQMNSLKPDDTAVYYCNAEWFQFYWYPHYKVTRYEYWGQVTQVTVSS” belongs “high polyreactivity”.
For the sequence “QVQLVESGGGLVQAGGSLRLSCAASGFTFQYYAMGWYRQAPGKERELVAAISWSGASTYYADSVKGRFTISRDNAKNTVYLQMNSLKPEDTAVYYCAADYWGHEYDYWGQGTQVTVSS”, the “polyreactivity (PSR sort gate)” value is reported as “high polyreactivity”.
The same measure for “QVQLVESGGGLVQAGGSLRLSCAASGFTFQYYAMGWYRQAPGKERELVAAISWSGTSPYYADSVKGRFTISRDNAKNTVYLQMISLKPADTAVYDCAASVWYYYSDYDYWGQGTQVTVSS”: “high polyreactivity”; for “QVQLVESGGGLVQAGGSLRLSCAASGFTFQYYAMGWYRQAPVKERELVAAINWSGGRTYYADSVKGRFTISRDNAKNTVYLQMNSLKPEDTAVYYCAAPRSFSGGYGYVSYDYWGQGTQVTVSS”: “high polyreactivity”.
The same measure for “QVQLVESGGGLVQAGGSLRLSCAASGFTFQYYDMGWYRQAPGKERELVAAISWSGGSTYYADSVKGRFTISRDNAKNTVYFQMNSLKPEDTAVYYCAAGYTRSRHYTPYDYWGQGTQVTVSS”: “high polyreactivity”; for “QVQLVESGGGLVQAGGSLRLSCAASGFTFQYYTMGWYRQAPGKERELLAAITYSGSTYYADSVKGRFTISRDNAKNTVYLQMNSLKPEDTAVYYCNVYRGRYLYAWRPLGYWGQGTQVTVSS”: “high polyreactivity”; for “QVQLVESGGGLVQAGGSLRLSCAASGFTFRAYAMGWYRQAPGKERELVAAISWGGGSTYYADSVKGRFTISRDNAKNTVYLQMNSLKPEDTAVYYCATERRRYNTEYEYWGQGTQVTVSS”: “high polyreactivity”.
The same measure for “QVQLVESGGGLVQAGGSLRLSCAASGFTFRDYAMGWYRQAPGKEREFFADITFSGDNTRYADSVKGRFTISRDNAQNTVYLQMNSLKPEDTAVYYCNADRVVGPYDGYDYWGQGTQVTVSS”: “low polyreactivity”; for “QVQLVESGGGLVQAGGSLRLSCAASGFTFRDYAMGWYRQAPGKERELVAAITRSGGRTYYADSVKGRFTISRDNAKNTVYLQMNSLKPEDTAVYYCNALDYLYGGIYLEEDYWGQGTQVTVSS”: “low polyreactivity”.
On to “QVQLVESGGGLVQAGGSLRLSCAASGFTFRFYALGWYRQAPGKERELVAAISRRGGTTYYADSVKGRFTISRDNAKNTVYLQMNSLKPEDTAVYYCNKDWTYEHGYWGQGTQVTVSS”, for which the “polyreactivity (PSR sort gate)” value is on record as “high polyreactivity”.
“QVQLVESGGGLVQAGGSLRLSCAASGFTFRFYAMGWYRQAPAKERELVAAISRGGSTYYADSVKGRFTISRDNAKYTVYLQMNSLKPEDTAVFYCAKRGRYGDYWGQGTLVTVSS”: the “polyreactivity (PSR sort gate)” value is reported as “high polyreactivity”.
To “QVQLVESGGGLVQAGGSLRLSCAASGFTFRIYAMGSYRQAPGKERELVAAISWAGGSTFYADSVKGRFTISRDNAKNTVYLQMNSLKPEDTAVYYCAADTAFHYDYWGQGTQVTVSS” belongs “low polyreactivity”; to “QVQLVESGGGLVQAGGSLRLSCAASGFTFRIYAMGWYRQAPGKERELVATISWSGTSTYYADSVKGRFTISRDYAKNTVFFQMNSLNPEDTAVYYCAKDGVSFYWLNKYYYWGQGTQVTVSS”, “low polyreactivity”; to “QVQLVESGGGLVQAGGSLRLSCAASGFTFRKNVMGWYRQATGKERELVAVISSSGGSTYYADSVKGRFTISRDNAKNTVYLPMNRLKPEVTAVYYCNAGRYGSNLEYWGQGTQLTVSS”, “low polyreactivity”.
Regarding “QVQLVESGGGLVQAGGSLRLSCAASGFTFRKYAMGLYRQAPGKERELVASITSGGSTYYADSVKGRFTISRDNAKNTVYLQMNSLKPEDNAVYYCNAVKATLASGRLRGAYYYWGQGNQVTVSS”, the “polyreactivity (PSR sort gate)” value is recorded as “high polyreactivity”.
